# Values quoted from earlier work, collected in patent US4446316A, “Dextran derivative of fibrinolysin” (Vsesojuzny Kardiologichesky Nauchny Tsentr, priority 1980, dated 1984).
# Details: prior-art product (Kardiologiya, 1977); cited from earlier work
molecule,measurement,value
"derivative of fibrinolysin with aldehyde-containing sephadex: fibrinolysin reacted with a modified aldehyde-containing sephadex in a phosphate buffer at 4° C. (conjugate, UniProt P00747 20-580; P00747 581-810, looked up, plasmin conjugated to aldehyde-containing Sephadex) Plasmin heavy chain A: EPLDDYVNTQGASLFSVTKKQLGAGSIEECAAKCEEDEEFTCRAFQYHSKEQQCVIMAENRKSSIIIRMRDVVLFEKKVYLSECKTGNGKNYRGTMSKTKNGITCQKWSSTSPHRPRFSPATHPSEGLEENYCRNPDNDPQGPWCYTTDPEKRYDYCDILECEEECMHCSGENYDGKISKTMSGLECQAWDSQSPHAHGYIPSKFPNKNLKKNYCRNPDRELRPWCFTTDPNKRWELCDIPRCTTPPPSSGPTYQCLKGTGENYRGNVAVTVSGHTCQHWSAQTPHTHNRTPENFPCKNLDENYCRNPDGKRAPWCHTTNSQVRWEYCKIPSCDSSPVSTEQLAPTAPPELTPVVQDCYHGDGQSYRGTSSTTTTGKKCQSWSSMTPHRHQKTPENYPNAGLTMNYCRNPDADKGPWCFTTDPSVRWEYCNLKKCSGTEASVVAPPPVVLLPDVETPSEEDCMFGNGKGYRGKRATTVTGTPCQDWAAQEPHRHSIFTPETNPRAGLEKNYCRNPDGDVGGPWCYTTNPRKLYDYCDVPQCAAPSFDCGKPQVEPKKCPGR Plasmin light chain B: VVGGCVAHPHSWPWQVSLRTRFGMHFCGGTLISPEWVLTAAHCLEKSPRPSSYKVILGAHQEVNLEPHVQEIEVSRLFLEPTRKDIALLKLSSPAVITDKVIPACLPSPNYVVADRTECFITGWGETQGTFGAGLLKEAQLPVIENKVCNRYEFLNGRVQSTELCAGHLAGGTDSCQGDSGGPLVCFEKDKYILQGVTSWGLGCARPNKPGVYVRVSRFVTWIEGVMRNN",Solubility in water and aqueous solutions,not soluble
